Measured values reported in publication doi:10.1101/2020.04.30.070086 (bioRxiv, 2020).

Biological target: T1, keratin 1 (K1) (UniProt P04104 1-637)
T1 sequence (looked up): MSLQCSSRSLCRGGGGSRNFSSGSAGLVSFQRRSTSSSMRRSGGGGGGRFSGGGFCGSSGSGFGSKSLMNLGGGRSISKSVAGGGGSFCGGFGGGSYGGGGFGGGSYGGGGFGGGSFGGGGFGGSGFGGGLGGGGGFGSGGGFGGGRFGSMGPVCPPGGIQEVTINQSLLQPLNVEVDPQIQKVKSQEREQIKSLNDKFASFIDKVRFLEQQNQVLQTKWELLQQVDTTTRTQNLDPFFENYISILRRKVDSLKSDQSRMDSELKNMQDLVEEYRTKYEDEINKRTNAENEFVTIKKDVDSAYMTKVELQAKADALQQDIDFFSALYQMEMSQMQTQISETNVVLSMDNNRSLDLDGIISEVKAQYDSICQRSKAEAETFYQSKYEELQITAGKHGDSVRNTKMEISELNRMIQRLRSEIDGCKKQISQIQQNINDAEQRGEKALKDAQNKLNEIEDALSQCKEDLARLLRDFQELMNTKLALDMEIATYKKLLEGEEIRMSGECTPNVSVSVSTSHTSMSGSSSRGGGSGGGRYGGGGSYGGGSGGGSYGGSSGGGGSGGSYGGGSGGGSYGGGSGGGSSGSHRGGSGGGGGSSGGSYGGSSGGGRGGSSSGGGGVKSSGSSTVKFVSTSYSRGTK
Assay: co-sedimentation

B1: keratin 10 (K10), full length (natural protein, UniProt P02535-2 1-561, looked up)
chain: MSVLYSSSSKQFSSSRSGGGGGGGSVRVSSTRGSLGGGYSSGGFSGGSFSRGSSGGGCFGGSSGGYGGFGGGGSFGGGYGGSSFGGGYGGSSFGGGSFGGGGSFGGGSFGGGSYGGGFGGGGFGGDGGSLLSGNEKVTMQNLNDRLASYMDKVRALEESNYELEGKIKEWYEKHGNSSQREPRDYSKYYKTIEDLKGQILTLTTDNANVLLQIDNARLAADDFRLKYENEVTLRQSVEADINGLRRVLDELTLSKSDLEMQIESLNEELAYLKKNHEEEMRDLQNVSTGDVNVEMNAAPGVDLTQLLNNMRNQYEQLAEKNRKDAEEWFNQKSKELTTEIDSNIEQMSSHKSEITELRRTVQGLEIELQSQLALKQSLEASLAETEGRYCVQLSQIQSQISALEEQLQQIRAETECQNAEYQQLLDIKTRLENEIQTYRSLLEGEGSSSGGGGGRRGGSGGGSYGGSSGGGSYGGSSGGGGSYGGSSGGGGSYGGGSSGGGSHGGSSGGGYGGGSSSGGAGGHGGSSGGGYGGGSSSGGQGGSGGFKSSGGGDQSSKGPRY
  binding result: binds
